Assay results published in the Immune Epitope Database (IEDB).

What was measured:
Settings in all cases: source organism: Influenza A virus (A/Puerto Rico/8/1934(H1N1))
HLA-A*11:01 = assay: IEDB peptide-MHC binding, purified MHC/competitive/radioactivity; ≥ and ≤ were set here for values at or beyond the usual limits of such assays
HLA-B*07:02 = assay: as above
HLA-A*68:01 [1] = assay: as above
HLA-A*03:01 = assay: as above
HLA-A*31:01 = assay: as above
HLA-A*33:01 [2] = assay: as above
HLA-A*02:01 = assay: as above
HLA-A*68:01 [3] = assay: IEDB peptide-MHC binding, purified MHC/competitive/radioactivity; filed as Kd, often an IC50 or EC50 that approximates it; ≥ and ≤ were set here for values at or beyond the usual limits of such assays
HLA-A*33:01 [4] = assay: as above

| Sequence | IC50 (HLA-B*07:02) [nM] | IC50 (HLA-A*02:01) [nM] | further results |
| --- | --- | --- | --- |
| RMNYYWTLLK | – | – | IC50 (HLA-A*11:01): 2.6 nM |
| SPYNSRFESV | 41.4 | – | – |
| SIIPSGPLK | – | – | IC50 (HLA-A*68:01 [1]): 108 nM; IC50 (HLA-A*03:01): 14 nM; IC50 (HLA-A*31:01): 4290 nM |
| RVLSFIKGTK | – | – | IC50 (HLA-A*11:01): 72 nM; IC50 (HLA-A*68:01 [1]): 471 nM; IC50 (HLA-A*33:01 [2]): 1320 nM; IC50 (HLA-A*03:01): 13.8 nM; IC50 (HLA-A*31:01): 333 nM |
| VLLVSLGAI | – | 290 | – |
| GPVHFRNQV | 71.4 | – | – |
| APSPYNSRF | 19.2 | – | – |
| ITNKVNSVIEK | – | – | IC50 (HLA-A*11:01): 90 nM |
| LLLEVEQEI | – | 213 | – |
| APPKQSRMQF | 24 | – | – |
| SMIEAESSV | – | 160 | – |
| NPALRMKWM | 59.5 | – | – |
| LPVRSWSYIV | 207 | – | – |
| KLESMGIYQI | – | 434 | – |
| LPSLPGHTA | 41 | – | – |
| KTRPILSPLTK | – | – | IC50 (HLA-A*11:01): 120 nM |
| GIAPLQLGK | – | – | Kd (HLA-A*68:01 [3]): 1180 nM; IC50 (HLA-A*11:01): 30 nM; IC50 (HLA-A*03:01): 18 nM; IC50 (HLA-A*31:01): 281 nM |
| FPSSSYRRPV | 20.9 | – | – |
| KMNIQFTAV | – | 150 | – |
| GPALSINEL | 119 | – | – |

| Sequence | IC50 (HLA-B*07:02) [nM] | IC50 (HLA-A*02:01) [nM] | further results |
| --- | --- | --- | --- |
| GIHHPSNSK | – | – | IC50 (HLA-A*11:01): 429 nM |
| LILRGSVAHK | – | – | IC50 (HLA-A*11:01): 188 nM |
| TMVMELVRMIK | – | – | IC50 (HLA-A*11:01): 194 nM; IC50 (HLA-A*03:01): 124 nM; IC50 (HLA-A*31:01): 1290 nM |
| ALKMTMASV | – | 225 | – |
| SVRNGTYDYPK | – | – | IC50 (HLA-A*11:01): 43 nM |
| GPPCSQRSKF | 270 | – | – |
| NLYNIRNLHI | – | 61 | – |
| GMFNMLSTV | – | 28 | – |
| IPKQKVAGPL | 42.4 | – | – |
| FLWHVRKRV | – | 204 | – |
| YPKLKNSYV | 176 | – | – |
| CIYRRFKYFLK | – | – | IC50 (HLA-A*11:01): 231 nM |
| SLPFQNIHPV | – | 96 | – |
| GPDNGAVAVL | 498 | – | – |
| LPRRSGAAGA | 76.3 | – | – |
| SPKGVEESSI | 215 | – | – |
| RPCFWVELI | 67.1 | – | – |
| LMDALKLSI | – | 40 | – |
| FPNEVGARIL | 365 | – | – |
| SLLTEVETYV | – | 38 | – |

| Sequence | IC50 (HLA-B*07:02) [nM] | IC50 (HLA-A*02:01) [nM] | further results |
| --- | --- | --- | --- |
| LLTEVETPI | – | 24 | – |
| STDTVDTVLEK | – | – | IC50 (HLA-A*11:01): 90 nM |
| NIQFTAVGK | – | – | IC50 (HLA-A*11:01): 182 nM |
| WILDRLFFK | – | – | IC50 (HLA-A*11:01): 7.6 nM |
| RTLDFHDSNVK | – | – | Kd (HLA-A*33:01 [4]): 6300 nM; IC50 (HLA-A*11:01): 50 nM; IC50 (HLA-A*68:01 [1]): 2290 nM; IC50 (HLA-A*03:01): 141 nM; IC50 (HLA-A*31:01): 1500 nM |
| TPLGAINSSL | 34.9 | – | – |
| RPWVSFDQNL | 397 | – | – |
| VPASRYLTDM | 13.6 | – | – |
| GMGWLTIGI | – | 133 | – |
| SPGMMMGMF | 137 | – | – |
| CPKYVRSAKL | 344 | – | – |
| CLLQSLQQI | – | 159 | – |
| NPRMFLAMI | 10.1 | – | – |
| GTHPSSSAGLK | – | – | IC50 (HLA-A*11:01): 94 nM |
| MLSTVLGVSI | – | 252 | – |
| AVGKEFNKLEK | – | – | IC50 (HLA-A*11:01): 130 nM |
| LPACVYGPAV | 220 | – | – |
| ILWILDRLFFK | – | – | IC50 (HLA-A*11:01): 21 nM |
| RMQFSSFTV | – | 28 | – |
| WMMAMKYPI | – | 72 | – |
